The values that follow come from patent US20080090770A1, “Modulation of Muc1 Mediated Signal Transduction” (priority 2003, published 2008).

For one assay, the system named is HCT116/vector cells. Kind of assay: Apoptosis assay (sub-G1 DNA content) after siRNA transfection and CDDP treatment. Conditions: CDDP 100 μM. It counts as cell-based, human. As for the experimental part: (§1) Cell culture and transfection: Human colon cancer HCT116 cells and human non-small lung cancer A549 were grown in Dulbecco's modified Eagle's medium (DMEM) and RPMI1640 medium, respectively, in a humidified 5% CO2 atmosphere at 37° C. Media were supplemented with 10% fetal bovine serum (FBS), 100 units/ml of penicillin and 100 μg/ml of streptomycin. HCT116 cells were transfected with pIRES-puro2 or pIRES-puro2-MUC1 as described (Li et al., 2001(a)) and stable transfectants were selected in the presence of 0.4 μg/ml puromycin (Caliochem-Novabiochem).
(§2) A nonspecific scrambled control siRNA (SCRsiRNA) was also synthesized (targeted sequence: 5′-[…]-3′) (Dharmacon, Inc.). Cells were plated, grown in antibiotic-free medium overnight, and then transiently transfected with siRNAs (0.2-20 nM) using Oligofectamine reagent (Invitrogen Life Technology, Inc.) and Opti-MEM 1 reduced serum medium (Invitrogen Life Technology, Inc.) according to the manufacturer's instructions.
(§3) Apoptosis assay: At 48 hr after siRNA transfection, cells were treated with 0, 10 or 100 μM cisplatin (CDDP, Sigma) for 24 hr to induce apoptosis. Apoptotic cells were quantified by analysis of sub-G1 DNA content. Cells were harvested, washed, with PBS, fixed with 75% ethanol, and incubated in PBS containing 200 μg/ml RNase A (Qiagen) for 15 min at 37° C. […] DNA content was analyzed by flow cytometry (EPICS XL-MCL, Coulter Corp.).

For a further assay, the system named is HCT116/MUC1 cells. The assay is described as above. It counts as cell-based, human. Conditions: CDDP 100 μM. As for the experimental part: as §1, §2, §3
Assay [1] has as its system HCT116 cells transfected with MUC1ΔSANL. Kind of assay: Visualization of viable cells after cisplatin in transfected HCT116 cells. The assay is classed as cell-based, human. As to conditions: 100 μM cisplatin, 24 and 48 hr. As for the experimental part: Human HCT116 colon carcinoma cells (ATCC, Manassas, Va.) were cultured in Dulbecco's modified Eagle's medium/F12 with 10% heat-inactivated fetal bovine serum, 100 units/ml penicillin, […] streptomycin and 2 mM L-glutamine. HCT116 cells were transfected with pIRES-puro2, pIRESpuro2-MUC1 or pIRES-puro2-MUC1ΔSANL (MUC1 with the four carboxyl terminal amino acids […] deleted) as described (Li et al., 2001). Stable transfectants were selected in the presence of 0.4 mg/ml puromycin (Calbiochem-Novabiochem, San Diego, Calif.).
Cells were incubated with 100 μM cisplatin (CDDP; Sigma), for 24 and 48 hr.

Assay [2] concerns the target T1, biotinylated TAT-MUC1 binding to ZO1 d2 (Homo sapiens, UniProt Q07157).
T1 construct: made in house; host or cells: E. coli
T1 sequence (Q07157 186-264 limits assumed): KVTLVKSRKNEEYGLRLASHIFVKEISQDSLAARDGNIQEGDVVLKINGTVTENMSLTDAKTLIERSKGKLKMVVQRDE
Description: Modified ELISA: competition with binding of biotinylated TAT-MUC1 peptide (SEQ ID NO: 134) to PDZ domain. For orientation: An ELISA detects its analyte on a solid surface through an enzyme-linked reagent.

In assay [3] the target is T2, biotinylated TAT-MUC1 binding to RIM2 (Homo sapiens, UniProt Q9UQ26).
T2 construct: RIM2, PDZ domain 1: GI#: 12734165; made in house; host or cells: E. coli
T2 sequence (Q9UQ26 668-754 limits assumed): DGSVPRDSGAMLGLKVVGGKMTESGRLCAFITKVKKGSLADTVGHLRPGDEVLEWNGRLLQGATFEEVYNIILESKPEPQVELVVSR
The description is as above. As to conditions: FIG. 10, among three peptides.

Another assay addresses T3, HtrA2 (Homo sapiens, UniProt O43464).
T3 construct: purchased Panomics Inc
T3 sequence (O43464 364-445 limits assumed): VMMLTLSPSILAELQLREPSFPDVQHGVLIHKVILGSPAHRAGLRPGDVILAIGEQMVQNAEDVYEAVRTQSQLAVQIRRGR
Description: TransSignal PDZ Domain Array: binding of His-tagged MUC1/CD to immobilized PDZ domain, without or with 7-mer peptide. As for the experimental part: (§4) The ability of the MUC1 cytoplasmic domain (CD) to interact with a panel of 28 human PDZ domain proteins was screened. A His-tagged MUC1/CD was produced to affect the screening. The CD of MUC1 was amplified by RT-PCR from cDNA derived from human breast cancer MCF7 cells. The MUC1/CD gene was cloned into a bacterial vector pEXP (Panomics Inc.) to generate a His-tagged fusion protein (pEXP/MUC1/CD). DH5α E. Coli cells were transformed with pEXP/MUC1/CD and incubated overnight in 1 ml of LB medium containing 100 μg/ml ampicillin (LB/AMP). Eighty μl of the overnight culture was transferred to a tube of 4 ml of LB/AMP and allowed to grow until an OD600 of approximately 0.5-0.8 was evident. IPTG was added to the culture at a final concentration of 0.5 mM to induce expression of the His-tagged MUC1/CD protein. After 4 hours, cells were harvested in 1× resuspension buffer (Panomics Inc.) and lysed by sonication. The lysate was centrifuged at 14000 rpm for 5 minutes at 4° C. The resulting supernatant (bacterial extract) was collected and stored at −80° C. until use.
(§5) The TransSignal PDZ Domain Array kit (Panomics Inc.) was used comprising membranes on which the following 28 human PDZ proteins had been immobilized: MINT-2 d1, Mint-3 d1, Mint-3 d2, Mint-1 d1, Mint1 d2, CSKP, Dlg d1, Dlg1 d3, Dlg2 d2, Dlg4 d3, DVL1, DVL3, DVLL, GIPC, HtrA2, LIMK2, MPP2, NEB1, OMP25, hCLIM1, PTPH1, ZO-2 d1, hPTP1E d1, hPTP1E d5, RGS12, RIL, ZO-1 d3 and ZO-2 d3.
(§6) Membranes were submerged in a small tray with 20 ml of x1 blocking buffer (Panomics Inc.), and shaken at room temperature for 1 hour. The blocking buffer was removed and membranes rinsed twice with x1 Wash Buffer (Panomics inc.) at room temperature. The bacterial extract was diluted to a final concentration of 0.1 mg/ml in 20 ml Resuspension Buffer (Panomics Inc.). The membrane was incubated with the dilute bacterial extract overnight at 4° C. with gentle shaking. After incubation, the membrane was washed three times with 40 ml 1× Wash Buffer at room temperature for 10 minutes each wash. The membrane was then incubated with 20 ml diluted Anti-Histidine HRP Conjugate (Panomics inc., 1:3000 dilution in 1× Wash Buffer) at room temperature for 1 hour. The membrane was then washed with 40 ml 1× Wash Buffer at room temperature for 10 minutes each wash. The membrane was then visualized using […] ECL (Amersham Biosciences) utilizing the Detection Buffers as supplied by Panomics.
(§7) His-tagged MUC1/CD (bacterial extract) was incubated in the absence or presence of a 20-fold molar excess of the 7-mer peptide AAASANL (SEQ ID NO: 133) with the appropriate membrane-immobilized PDZ domain, as described above in Example 4.

Another assay concerns the target T4, Mint-1 d2 (Homo sapiens, UniProt Q02410).
T4 construct: Mint-1 d2 (XII protein, PDZ domain #2); purchased Panomics Inc
T4 sequence (Q02410 747-822 limits assumed): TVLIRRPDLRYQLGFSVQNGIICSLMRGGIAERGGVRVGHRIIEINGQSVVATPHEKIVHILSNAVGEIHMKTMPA
The assay is described as above. As for the experimental part: as §4, §5, §6, §7

Another assay deals with T5, RIL (Homo sapiens, UniProt P50479).
T5 construct: purchased Panomics Inc
T5 sequence (P50479 1-84 limits assumed): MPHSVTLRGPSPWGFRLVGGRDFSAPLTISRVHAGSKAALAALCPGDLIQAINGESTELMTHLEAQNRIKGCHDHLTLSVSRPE
The description is as above. As for the experimental part: as §4, §5, §6, §7

The next assay addresses T6, PTPH1 (Homo sapiens, UniProt P26045).
T6 construct: purchased Panomics Inc
T6 sequence (P26045 510-582 limits assumed): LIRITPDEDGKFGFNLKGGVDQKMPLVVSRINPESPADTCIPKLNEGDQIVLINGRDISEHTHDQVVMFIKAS
The description is as above. As for the experimental part: as §4, §5, §6, §7

In a further assay the target is T7, Mint-2 d1 (Homo sapiens, UniProt Q99767).
T7 construct: Mint-2 d1(XIIL protein, PDZ domain #1); purchased Panomics Inc
T7 sequence (Q99767 568-654 limits assumed): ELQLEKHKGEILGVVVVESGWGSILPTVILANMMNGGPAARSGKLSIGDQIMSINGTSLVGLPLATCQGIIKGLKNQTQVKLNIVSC
The description is as above. As for the experimental part:
as §4, §5, §6, §7

The subject of another assay is PDZ domains. Description: Modified ELISA: profile (matrix) screen of biotinylated peptide against individual GST-PDZ domain fusion proteins. It counts as binding, human. From the text:
Profile Results Peptides corresponding to the C-terminus were able to bind a number of PDZ domains in a concentration dependent manner. […] Identities of the interacting PDZ domains are listed directly above or next to the bar representing the absorbance in the assay.
The results, shown in FIGS. 11, 12 and 13, represent the absorbance and standard deviation of interactions of higher relative strength. The data in FIG. 13 for PDZK1, PTPL1 d5, MUPP1 d4 and INADL d1 have high standard deviations and thus require further verification to validate intensity of binding.

In another assay the target is T8, OMP25 (Homo sapiens, UniProt P57105).
T8 construct: The TransSignal PDZ Domain Array kit (Panomics Inc.) was used; purchased Panomics Inc
T8 sequence (P57105 13-100 limits assumed): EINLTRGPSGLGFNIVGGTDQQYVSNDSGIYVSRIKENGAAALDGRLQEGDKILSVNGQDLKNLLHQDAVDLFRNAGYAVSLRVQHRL
Kind of assay: TransSignal PDZ Domain Array: binding of His-tagged MUC1/CD to immobilized PDZ domain. As to conditions: bacterial extract 0.1 mg/ml, panel of 28 PDZ proteins. As for the experimental part: as §4, with “use. […]” for “use.”

Setting [4] is: bacterial extract 0.1 mg/ml, panel of 28 PDZ proteins.

With `[NH2][Pt]([NH2])([Cl])[Cl]` [CDDP, cisplatin], the “Sensitivity of cells to apoptosis induced by CDDP” value is “sensitive to apoptosis” in the assay on HCT116/vector cells and “relatively resistant to apoptosis” with HCT116/MUC1 cells. The “Sensitivity to CDDP-induced cell death relative to cells transfected with full length MUC1” value in assay [1] is reported as “substantially increase in the sensitivity to CDDP-induced cell death”.

Regarding YGRKKRRQRRRARGDRKRIV [SEQ ID NO: 136], in [2], the “Competition for binding of biotinylated SEQ ID NO: 134 (TAT-MUC1)” value is “can also compete for binding”. Besides, in assay [3], the “Competitive inhibition of biotinylated SEQ ID NO: 134 (TAT-MUC1) binding” value is recorded as “best competitive inhibitor”.

Turning to AAASANL [7-mer peptide], the “Inhibition of binding of his-tagged MUC1/CD to PDZ domain” value with HtrA2 (20-fold molar excess of 7-mer), with Mint-1 d2 (20-fold molar excess of 7-mer), with RIL (20-fold molar excess of 7-mer), with PTPH1 (20-fold molar excess of 7-mer) and with Mint-2 d1 (20-fold molar excess of 7-mer) was “inhibited the binding” each time.

In the case of NGGSSLSYTNPAVAATSANL [MUC1 peptide], the “Interactions with higher absorbance readings in PDZ profile” value in the assay with PDZ domains (MUC1 peptide concentration 0.01 μm, FIG. 3) is “seven interactions are observed to give higher absorbance readings”; in the assay on PDZ domains (MUC1 peptide concentration 0.1 μm, FIG. 4) it was “more interactions are observed”.

Turning to “MUC1/CD: His-tagged fusion protein of the MUC1 cytoplasmic domain, used as bacterial extract”, the “Binding of his-tagged MUC1/CD to PDZ domain” value in the assay with OMP25, in the assay with HtrA2 (setting [4]), in the assay with Mint-1 d2 (setting [4]), in the assay with RIL (setting [4]), with PTPH1 (setting [4]) and with Mint-2 d1 (setting [4]) was “Binding was observed” each time.
